Data taken from the DeepSol protein solubility set.

experiment: soluble on expression in E. coli; label from the status in PepcDB or PDB records

Sequence	soluble on expression in E. coli
MNLEKINELTAQDMAGVNATILEQLNSDVQLINQLGYYIISGGGKRIRPMIAVLAARAVGYQGNAHVTIAALIEFIHTATLLHDDVVDESDMRRGKATANAAFGNAASVLVGDFIYTRAFQMMTSLGSLKVLEVMSEAVNVIAEGEVLQLMNVNDPDITEENYMRVIYSKTARLFEAAAQCSGILAGCTPEQEKGLQDYGRYLGTAFQLIDDLLDYSADGEHLGKNVGDDLNEGKPTLPLLHAMRHGTPEQSAMIRTAIEQGNGRHLLEPVLEAMTTCGSLEWTRQRAEEEADKAISALQILPDTPWREALIGLAHIAVQRDR	not soluble
SNPFAHLAEPLDPVQPGKKFFNLNKLEDSRYGRLPFSIRVLLEAAIRNCDEFLVKKQDIENILHWNVTQHKNIEVPFKPARVILQDFTGVPAVVDFAAMRDAVKKLGGDPEKINPVCPADLVIDHSIQVDFNRRADSLQKNQDLEFERNRERFEFLKWGSQAFHNMRIIPPGSGIIHQVNLEYLARVVFDQDGYYYPDSLVGTDSHTTMIDGLGILGWGVGGIEAEAVMLGQPISMVLPQVIGYRLMGKPHPLVTSTDIVLTITKHLRQVGVVGKFVEFFGPGVAQLSIADRATIANMCPEYGATAAFFPVDEVSITYLVQTGRDEEKLKYIKKYLQAVGMFRDFNDPSQDPDFTQVVELDLKTVVPCCSGPKRPQDKVAVSDMKKDFESCLGAKQGFKGFQVAPEHHNDHKTFIYDNTEFTLAHGSVVIAAITSCTNTSNPSVMLGAGLLAKKAVDAGLNVMPYIKTSLSPGSGVVTYYLQESGVMPYLSQLGFDVVGYGCMTCIGNSGPLPEPVVEAITQGDLVAVGVLSGNRNFEGRVHPNTRANYLASPPLVIAYAIAGTIRIDFEKEPLGVNAKGQQVFLKDIWPTRDEIQAVERQYVIPGMFKEVYQKIETVNESWNALATPSDKLFFWNSKSTYIKSPPFFENLTLDLQPPKSIVDAYVLLNLGDSVTTDHISPAGNIARNSPAARYLTNRGLTPREFNSYGSRRGNDAVMARGTFANIRLLNRFLNKQAPQTIHLPSGEILDVFDAAERYQQAGLPLIVLAGKEYGAGSSRDWAAKGPFLLGIKAVLAESYERIHRSNLVGMGVIPLEYLPGENADALGLTGQERYTIIIPENLKPQMKVQVKLDTGKTFQAVMRFDTDVELTYFLNGGILNYMIRKMAK	soluble
SMPHSVTLRGPSPWGFRLVGGRDFSAPLTISRVHAGSKAALAALCPGDLIQAINGESTELMTHLEAQNRIKGCHDHLTLSVSRPEGESDL	soluble
MNVLGRITAMPDLPEPLEGLKEIAYNLWWSWNPEAAELFQELDPALWKRFRGNPVKLLLELDPARLEALSASGYAARVQATREALRAYLEARRTKRGPLVAYFSAEYGFHSSLPIYAGGLGVLAGDHVKAASDLGLNLVGVGLFYHEGYFHQRLSPEGEQVEVYEPLRPEELPLVPVQDAEGRPVRVAVEFPGRLVHVGGYRVQVGAVPVYLLTTDLPENAPEDRQITARLYAAGLEARIQQELVLGLGGVRFLRALGLAPAFFHMNEGHSAFLGLERLRELVAEGYPFREALELARASALFTTHTPVPAGHDVFPLDLVDRYLGGFWEKLGVDRDTFLGLGLEEKPWGPVFSMSNLALRTAAQANGVSRLHGEVSRNMFRHLWPGLLAEEVPIGHVTNGVHTWTFLHPRLRRHYAEVFGPEWVERPEDPETWRVEGLGEAFWRIRQDLKLFLVREVRQRLYEQRRRNGEGPARLREAEKALDPEALTIGFARRFATYKRAVLLFKDPERLLRILKGPYPVQFVFAGKAHPKDEAGKAYLQELVSKIREYGLEDRMVVLEDYDMYLARVLTHGSDVWLNTPRRPMEASGTSGMKAALNGALNLSVLDGWWAEAYNGKNGFAIGDERVYESEEAQDVADAQALYDLLESEVIPLFYAKGLEGYSSGWMSMVHESLRTVGPYFSAGRMVRDYLALYERGALWEKEARARLEALKAFAEALSAFHALGVRPEVPGDLTLNGGRLEVGSVLEGEVPEGLRPHLRVQLVVRRLGGGLEVVDLEEVAPGRYRTAFRPTRPGSYTYGLRLALLHPVTGRVEWVRWA	soluble
LIIGVTGCPAGIAHTYLAAEALEKGAAALGFEIKVETNGSIGVKNSPSAEEIERAEAIVVACDKQVDMARFAGKRLIKTNVKAPIRDAQKLINEALRAPTY	not soluble
GSHMLEFSEWYSDILEKAEIYDVRYPIKGCGVYLPYGFKIRRYTFEIIRNLLDESGHDEALFPMLIPEDLLAKEAEHIKGFEDEVYWVTHGGKTQLDVKLALRPTSETPIYYMMKLWVKVHTDLPIKIYQIVNTFRYETKHTRPLIRLREIMTFKEAHTAHSTKEEAENQVKEAISIYKKFFDTLGIPYLISKRPEWDKFPGAEYTMAFDTIFPDGRTMQIATVHNLGQNFSKTFEIIFETPTGDKDYAYQTCYGISDRVIASIIAIHGDEKGLILPPIVAPIQVVIVPLIFKGKEDIVMEKAKEIYEKLKGKFRVHIDDRDIRPGRKFNDWEIKGVPLRIEVGPKDIENKKITLFRRDTMEKFQVDETQLMEVVEKTLNNIMENIKNRAWEKFENFITILEDINPDEIKNILSEKRGVILVPFKEEIYNEELEEKVEATILGETEYKGNKYIAIAKTY	soluble
MSLKARSPYSPAEEDALFMDLPTGPRGQQAQPQRAEKNGMLPASYGPGEQNGTGGYQRAFPPRTNPEKHSQRKSNLAQVEHWARAQKGDSRSLPLDQTLPRQGPGQSLSFPENYQTLPKSTRHPSGGSSPPPRNLPSDYKYAQDRASHLKMSSEERRAHRDGTVWQLYEWQQRQQFRHGSPTAPICLGSPEFTDQGRSRSMLEVPRSISVPPSPSDIPPPGPPRVFPPRRPHTPAERVTVKPPDQRRSVDISLGDSPRRARGHAVKNSSHVDRRSMPSMGYMTHTVSAPSLHGKSADDTYLQLKKDLEYLDLKMTGRDLLKDRSLKPVKIAESDTDVKLSIFCEQDRVLQDLEDKIRALKENKDQLESVLEVLHRQMEQYRDQPQHLEKIAYQQKLLQEDLVHIRAELSRESTEMENAWNEYLKLENDVEQLKQTLQEQHRRAFFFQEKSQIQKDLWRIEDVTAGLSANKENFRILVESVKNPERKTVPLFPHEGHHHHHH	not soluble
MKNDEVLLSIKNLKQYFNAGKKNEVRAIENISFDIYKGETLGLVGESGCGKSTTGKSIIKLNDITSGEILYEGIDIQKIRKRKDLLKFNKKIQMIFQDPYASLNPRLKVMDIVAEGIDIHHLATDKRDRKKRVYDLLETVGLSKEHANRYPHEFSGGQRQRIGIARVLAVEPEFIIADEPISALDVSIQAQVVNLLLKLQRERGITFLFIAHDLSMVKYISDRIAVMHFGKIVEIGPAEEIYQNPLHDYTKSLLSAIPQPDPESERSRKRFSYIDDEANNHLRQLHEIRPNHFVFSTEEEAAQLRENKLVTQN	not soluble
SAESSKLSATTVEAAPAMIKAKDVISPSEKEESDQTEITKVSVLKNLDEKEMIKEFADRLQRLEAKVDLLVTKADLLAIKADIQELLISAKGEKVPAMKTSAKASSESDDSYMDTSSEDESSSAEEPVNKPAASAAKPATKDSLFSAGFKPAAKDSLFSAGFKPDSLFSAGFEPAAKDSLFSAGFKPGSLFSAGFEPAAKDSLFSAGFKPDSLFSVGVKPAAKDSLFSVGVNGRSFSVTGFDASLPVDDIKSALSKYFSSFGEITRVFVPPSHGTGGSLGYAYIDLKEGAEKALELGRHDVGGWDLVVGKAEPIRSGSTWPFPGRCGNQGRCTFC	soluble
MSLNKTQAQVSHALKSLARKEEWKHRLQQSEELHDILLKAANRYVAGEKRSDGLAIARKLQAKGYGISLENIGENTKLLAQCREAKMEFDQLIEDVGAIAPGQTVSFDLSHIGLSYQFDTAYGHLIELAEKANEHEVTLMISMEESTKTDQILAVYRQAAELYSNIGITLQAHLFRTPDDLRKLVQLPGKIRIVKGAYQEPSHLAMERSDYLNNRYLELVDHLVSTNHPVSVATHDQKLLEEMERRQFLQSTDVEIEMLYGIQPSQLKLFKEKGYQTRVYLTYGHEWFLYLCHRLAEYPENIYTALIDIINPSLPKVDDMYEGHHHHHH	soluble
GPGSMHTKVLAPLAGNRIQAAHKFPQVRLQPTLHRLMTRRRQCNLPLRLFHPSSVDFAKHELEAGRIVEVRRDDNSLVALGFYEPHLERVDVFDMTANLAAMLPAISEDFFMARVHEAWERRRRILPQTQSNTYRVVNGYADSLPSLFVDVFSESFVRVVATSFGAERLVTPLLDFLSRRGAEDVLLDTPTLGDAARVSIVTPTISLPQMYVESGVSHLWLRPDMRMPSTDNLFLINPAHRRTRRMMRDVGKGKRVLTIYDRSGSAAMNAVMTAKHVTVVHREETSLEWARTNLICNHSASVFKTCETVCCDPAELRVRHQQDVVYVECHPKFLSTSNQWAELVRSLANNKVIGVGTMLIVAQEEAPLGVHDLLPRRKVFYEGDESKANQDCPMKRRPLADVLRNALEKCHLRLKFLRAFSVACDHPLLPEAESASFSLVYLVEGPALEQVFRVSASSHRTECTDEAA	not soluble
